Article PMC10764318

Tests used:
Experiment in all cases: BLI
[1] = molecular target: WRAIR-5011 (rhesus macaque)
[2] = molecular target: WRAIR-5004 (rhesus macaque)
[3] = molecular target: WRAIR-5020 (rhesus macaque)
[4] = molecular target: WRAIR-5021 (rhesus macaque)
WRAIR-5021 (rhesus macaque), sequence (VH, as listed by the source, chain 1 of 2): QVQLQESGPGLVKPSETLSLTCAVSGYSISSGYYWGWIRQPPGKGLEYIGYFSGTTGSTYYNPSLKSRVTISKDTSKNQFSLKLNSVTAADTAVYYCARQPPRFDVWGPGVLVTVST
WRAIR-5021 (rhesus macaque), sequence (VL, as listed by the source, chain 2 of 2): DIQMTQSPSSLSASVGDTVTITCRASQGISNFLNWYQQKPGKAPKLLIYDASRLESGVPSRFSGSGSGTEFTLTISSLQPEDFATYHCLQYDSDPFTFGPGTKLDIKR

WRAIR-5004 (rhesus macaque), sequence (VH, as listed by the source, chain 1 of 2): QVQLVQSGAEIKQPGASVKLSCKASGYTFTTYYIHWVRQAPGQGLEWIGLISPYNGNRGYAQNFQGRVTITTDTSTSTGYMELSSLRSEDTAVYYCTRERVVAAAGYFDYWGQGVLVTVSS
WRAIR-5004 (rhesus macaque), sequence (VL, as listed by the source, chain 2 of 2): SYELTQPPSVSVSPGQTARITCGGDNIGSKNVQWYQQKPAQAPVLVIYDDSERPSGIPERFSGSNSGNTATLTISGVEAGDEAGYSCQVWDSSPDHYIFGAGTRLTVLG
WRAIR-5020 (rhesus macaque), sequence (VH, as listed by the source, chain 1 of 2): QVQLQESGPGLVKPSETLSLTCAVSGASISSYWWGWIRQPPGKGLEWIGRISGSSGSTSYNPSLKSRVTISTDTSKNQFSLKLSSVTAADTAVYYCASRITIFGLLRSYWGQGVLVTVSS
WRAIR-5020 (rhesus macaque), sequence (VL, as listed by the source, chain 2 of 2): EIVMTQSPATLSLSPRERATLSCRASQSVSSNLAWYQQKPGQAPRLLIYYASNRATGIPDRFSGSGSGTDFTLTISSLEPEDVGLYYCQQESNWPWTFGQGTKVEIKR
WRAIR-5011 (rhesus macaque), sequence (VH, as listed by the source, chain 1 of 2): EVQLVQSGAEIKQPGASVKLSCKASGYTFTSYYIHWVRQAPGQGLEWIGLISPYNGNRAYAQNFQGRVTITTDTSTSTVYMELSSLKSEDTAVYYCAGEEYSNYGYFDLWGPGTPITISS
WRAIR-5011 (rhesus macaque), sequence (VL, as listed by the source, chain 2 of 2): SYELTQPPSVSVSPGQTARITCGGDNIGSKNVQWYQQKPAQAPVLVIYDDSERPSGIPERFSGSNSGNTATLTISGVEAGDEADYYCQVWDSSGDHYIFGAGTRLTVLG

SARS-CoV-2 Delta RBD (from UniProt P0DTC2 331-527) (domain or fragment)
Kd [1]: 0.48 nM | Kd [2]: 2.44 nM | Kd [3]: 108 nM | Kd [4]: 3.62 nM
